Where a chain is given by its changes, count along the chain named. One block for each binder: values may come before it.
Columns and labels:
[1] = molecular target: T1, TLR4 containing N-terminal HA-tag, stably transfected in CHO (EL1) cells (UniProt O00206 24-839, limits assumed); experiment: FACS with anti-His and anti-HA on TLR4 transfected EL-1 (CHO) cells, receptor numbers from a microbead standard curve
T1 construct: whole, on cells; also called membrane TLR4; TLR4 transfected EL-1 cells; not shown: N-terminal HA-tag
Method: (§1) LPS activation increased with increasing MD-2 levels on the cell surface. TLR4 transfected EL-1 cells (a CHO cell line stably transfected with NF-κB/CD25 reporter plasmid) were incubated with various amount of soluble MD-2 for 20 min. The amount of soluble MD-2 that bound to TLR4 transfected cells as well as the TLR4 expression level were assayed by FACS analysis using antibody to His-tag and HA-tag, respectively. The MD-2 and TLR4 receptor numbers were calculated by converting mean channel number (MCN) of fluorescence intensity using the standard curve generated with Simply Cellular Microbeads. The cells were also activated with 100 ng/ml LPS and NF-κB activation assayed by FACS analysis of surface CD25 expression.
(§2) Various concentrations of sMD-2, plotted on the x-axis, was added to CHO (EL1) cells stably transfected with TLR4. The amount of TLR4 and MD-2 on the cell surface was analyzed by FACS using anti-HA tag and anti-His tag antibody, respectively. The receptor numbers plotted on the left Y-axis were calculated from mean channel number (MCN) and the standard curves generated by simply cellular microbeads. The cells were also activated with 100 ng/ml of LPS.

[2] = molecular target: T1, TLR4 containing N-terminal HA-tag, …; experiment: FACS with anti-His and anti-HA on TLR4 transfected EL-1 (CHO) cells, receptor numbers from a microbead standard curve; 0.5 nM sMD-2, 20 min
Method: as §1, §2

[3] = molecular target: T1, TLR4 containing N-terminal HA-tag, …; experiment: FACS with anti-His tag of purified sMD-2 on TLR4 transfected EL1 (CHO) cells
Method: To determine sMD-2 mutants binding to TLR4, the purified proteins were added to TLR4 transfected EL1 cells, washed off excess protein after 15 min or overnight incubation, stained with anti-His tag antibody and analyzed by FACS. FIG. 10 illustrates data showing LPS activation of sMD-2. TLR4 transfected CHO cells harboring CD25 reporter plasmids were activated with 100 ng/ml LPS in the absence and presence of 5 ug/ml of sMD-2 and the NF-κB activation was measured by FACS analysis of CD25 surface expression (MCN) using anti-CD25-PE. […] None of mutants with mostly oligomers remained in association to TLR4 cells after 16 hr. The unglycosylated MD-2 bound normally to TLR4 cells after 15 min but the binding was reduced after 16 hr.

T1 sequence (O00206 24-839 limits assumed): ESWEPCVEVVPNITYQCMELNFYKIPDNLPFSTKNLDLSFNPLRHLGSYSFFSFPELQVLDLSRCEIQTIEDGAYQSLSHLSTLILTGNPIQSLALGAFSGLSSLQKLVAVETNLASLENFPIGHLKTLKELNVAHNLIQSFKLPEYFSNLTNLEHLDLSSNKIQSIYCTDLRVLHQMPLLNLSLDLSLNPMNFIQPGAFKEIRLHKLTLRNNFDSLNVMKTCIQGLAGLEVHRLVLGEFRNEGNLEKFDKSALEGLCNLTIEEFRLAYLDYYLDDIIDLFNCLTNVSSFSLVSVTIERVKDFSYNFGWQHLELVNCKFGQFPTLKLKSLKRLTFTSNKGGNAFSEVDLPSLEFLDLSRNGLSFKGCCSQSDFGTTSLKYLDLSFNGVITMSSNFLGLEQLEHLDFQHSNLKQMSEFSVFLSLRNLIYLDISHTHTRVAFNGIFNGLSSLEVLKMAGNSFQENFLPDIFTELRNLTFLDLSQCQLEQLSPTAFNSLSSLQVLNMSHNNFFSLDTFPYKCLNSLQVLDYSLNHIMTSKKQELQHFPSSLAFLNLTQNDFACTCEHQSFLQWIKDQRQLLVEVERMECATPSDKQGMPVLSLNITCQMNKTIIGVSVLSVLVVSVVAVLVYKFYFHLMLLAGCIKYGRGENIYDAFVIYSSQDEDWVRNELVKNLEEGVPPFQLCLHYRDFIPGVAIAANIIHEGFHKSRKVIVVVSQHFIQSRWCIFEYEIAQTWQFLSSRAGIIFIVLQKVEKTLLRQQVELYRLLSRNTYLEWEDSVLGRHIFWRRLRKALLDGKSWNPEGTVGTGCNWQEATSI

calculated ratio of MD-2 per TLR4 at maximal LPS activation [1]: ~5 MD-2 per TLR4
calculated ratio of surface MD-2 per TLR4 [2]: 0.5 MD-2 per TLR4
B1: soluble MD-2 wild type (human MD-2 with C-terminal His-tag, from insect cells) (other)
chain: EAQKQYWVCNSSDASISYTYCDKMQYPISINVNPCIELKGSKGLLHIFYIPRRDLKQLYFNLYITVNTMNLPKRKEVICRGSDDDYSFCRALKGETVNTTISFSFKGIKFSKGKYKCVVEAISGSPEEMLFCLEFVILHQPNSN
notes: Expressed with the gp64 signal peptide in place of its own; The purified protein is a mixture of monomer and disulfide-linked oligomers; also called sMD-2; sMD-2 WT; not shown: C-terminal V5/His tag of the vector (pBlueBac4.5/V5-His or pBac11)

binding result [3]: no binding (tested: 1 or 5 µg/ml)
B2: soluble MD-2 alanine replacement mutant 127-131 (other)
chain: B1 chain with S111A, K112A, G113A, K114A, Y115A
notes: Expressed as a monomer; also called mutant SKGKY; not shown: C-terminal V5/His tag of the vector

— patent US20080118504A1 (University of California, published 2008)
